# Read-outs that look alike come from different tables or passages of the source.
# T1: CTCF ZF3-ZF7 (human, UniProt P49711 317-467)
# T1 sequence: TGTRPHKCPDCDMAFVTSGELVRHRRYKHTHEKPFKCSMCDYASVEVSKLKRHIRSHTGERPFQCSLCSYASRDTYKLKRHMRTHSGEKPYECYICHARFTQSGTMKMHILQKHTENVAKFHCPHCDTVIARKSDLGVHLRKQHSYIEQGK
# Key:
# [1] = biological target: T2, INSM1 ZF1-ZF5 (human, UniProt Q01101 257-497); test: EMSA
# [2] = biological target: T3, INSM1 ZF1;TEAD1-TEAD (human;human?, UniProt Q01101;P28347 257-292;28-104, |); test: AUC
# [3] = biological target: T1, CTCF ZF3-ZF7; test: EMSA
# [4] = biological target: T2, INSM1 ZF1-ZF5; test: NMR titration
# [5] = biological target: INSM1 ZF3 (human, UniProt Q01101 346-396); test: NMR titration
# [6] = biological target: T3, INSM1 ZF1;TEAD1-TEAD; test: EMSA
# [7] = biological target: TEAD1-TEAD (UniProt P28347 28-104); test: EMSA
# [8] = biological target: T2, INSM1 ZF1-ZF5; test: EMSA; remark: listed apart in the source
# [9] = biological target: TEAD1-TEAD R80A (UniProt P28347 28-104, R80A); test: EMSA
# [10] = biological target: TEAD1-TEAD R75A (UniProt P28347 28-104, R75A); test: EMSA
# [11] = biological target: TEAD1-TEAD L79A (UniProt P28347 28-104, L79A); test: EMSA
# TEAD1-TEAD L79A, sequence (P28347 28-104 L79A): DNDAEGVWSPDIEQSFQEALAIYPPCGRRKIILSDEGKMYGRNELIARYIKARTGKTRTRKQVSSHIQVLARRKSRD
# T2 sequence (Q01101 257-497): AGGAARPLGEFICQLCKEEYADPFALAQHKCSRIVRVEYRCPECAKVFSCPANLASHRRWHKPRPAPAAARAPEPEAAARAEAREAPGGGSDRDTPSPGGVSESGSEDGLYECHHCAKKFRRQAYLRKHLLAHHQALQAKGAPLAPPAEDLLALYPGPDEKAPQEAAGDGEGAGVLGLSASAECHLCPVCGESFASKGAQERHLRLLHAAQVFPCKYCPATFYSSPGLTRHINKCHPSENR
# T3 sequence (Q01101 257-292, chain 1 of 2): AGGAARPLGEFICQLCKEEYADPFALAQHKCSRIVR
# T3 sequence (P28347 28-104, chain 2 of 2): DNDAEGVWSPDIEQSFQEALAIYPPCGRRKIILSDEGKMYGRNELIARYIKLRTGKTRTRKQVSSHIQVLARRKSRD
# TEAD1-TEAD R80A, sequence (P28347 28-104 R80A): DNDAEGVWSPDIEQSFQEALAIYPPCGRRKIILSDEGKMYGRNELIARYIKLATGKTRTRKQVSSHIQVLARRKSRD
# INSM1 ZF3, sequence (Q01101 346-396): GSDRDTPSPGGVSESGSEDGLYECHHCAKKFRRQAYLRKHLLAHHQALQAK
# TEAD1-TEAD R75A, sequence (P28347 28-104 R75A): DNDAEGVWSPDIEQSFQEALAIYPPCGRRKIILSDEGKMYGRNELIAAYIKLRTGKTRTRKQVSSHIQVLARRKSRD
# TEAD1-TEAD, sequence (P28347 28-104): as the sequence (P28347 28-104, chain 2 of 2) above
binder,measurement,setting,value
M1 (dsDNA) DNA 1: TGTCAGGGGGCA DNA 2: TGCCCCCTGACA,Kd,[1],6 µM
MCAT (unlabeled) (dsDNA) DNA 1: AGTGGAATGTGC DNA 2: GCACATTCCACT,binding result,[2],binds
M2 (FAM) (dsDNA) DNA 1: TACCACCAGGGGGCAGT DNA 2: ACTGCCCCCTGGTGGTA,Kd,[3],0.0984 µM
M2 (unlabeled) (dsDNA) DNA 1: TACCACCAGGGGGCAGT DNA 2: ACTGCCCCCTGGTGGTA,binding result,[4],binds
same,binding result,[5],binds
MCAT (FAM) (dsDNA) DNA 1: AGTGGAATGTGC DNA 2: GCACATTCCACT,binding result,[6],binds
same,Kd,[7],~0.09 µM
same,Kd,[8],8.24 µM
same,binding result,[9],binds
same,binding result,[10],binds
same,binding result,[11],binds

# Reference: article PMC11880201
